One data set deals with DC2.4 cells. The data set can be described thus: Presentation of the CTL epitope […] by DCs (flow cytometry). In kind it is cell-based, murine. As to conditions: 16 h incubation with DC2.4 cells. The method, then:
Presentation of the CTL epitope, […], by DCs. Cells of a murine DC line (DC2.4, a gift from K. Rock)^(32) were plated at 2.5×10^5/500 μL/well in 24-well plates. 500 μL of OVA, […] peptide (SEQ ID NO: 22), or iTEPB-iTEPA-pOVA NP (SEQ ID NO: 56) (iTEP-pOVA NP hereafter) were dissolved in cell culture media and added to the wells containing DCs. The cells were further cultured for 16 hrs. at 37° C. with 5% CO2 before they were collected and washed with PBS. The MHC class I complex, H-2kb/[…] presented on DC surface was stained with a PE-tagged monoclonal antibody 25-D1.16 (Biolegend, 1:100 dilution) and quantified with flow cytometry (5×10^4 events collected per sample). The data are presented as MFI normalized to the MFI of untreated DC2.4 cells.
Presentation of […] epitope vaccine by DCs. The presentation was studied as previously described (Cho et al., J Drug Target, 2015; p 1-12). The concentration of iTEP-vaccine fusions (NPs) used in this experiment was 5 μM. The results of presentation were shown as mean fluorescence intensity (MFI) of 5000 treated, live cells in a given treatment, which were normalized to the MFI value of untreated DC2.4 cells.
For orientation: A flow cytometer gives signals particle by particle.

For another data set, the system named is B3Z cells. The data set can be described thus: B3Z CD8+ T cell hybridoma activation assay. In kind it is cell-based. As to conditions: DC2.4 cells pre-incubated with antigen. On the procedure:
B3Z CD8+ T cell hybridoma activation assay. B3Z cells (a gift from N. Shastri) are a CD8+ T-cell hybridoma engineered to secrete β-galactosidase when their T-cell receptors are engaged with an […]:H2K^b complex.^(33) To do this assay, 1×10^5 DC2.4 cells/well were set in 96-well plates. OVA, […] peptide (SEQ ID NO: 22), and iTEP-pOVA NP (SEQ ID NO: 56) at indicated concentrations were loaded into the cell culture for 16 hours and then washed away. 1×10^5 B3Z cells/well were added to the DC2.4 cell culture and co-cultured with DC2.4 cells for 24 hours. The cells were washed with PBS before 100 μL of lysis buffer (PBS with 100 mM 2-mercaptoethanol, 9 mM MgCl2, 0.125% NP-40) together with 0.15 mM chlorophenol red β-galactoside were added into the wells. After the plates were incubated at 37° C. for 4 hours, the reaction was stopped with 50 μL/well of 15 mM EDTA and 300 mM glycine. The OD at 570 nm was measured and the OD at 630 nm was used as reference. The OD was used as an indicator as activation status of B3Z cells.
Activation of B3Z hybridoma (CD8+T) cells. This assay was done with a protocol described previously (Cho et al., J Drug Target, 2015; p 1-12).

Data set [1] deals with C57BL/6 mice. The data set can be described thus: In vivo CTL response by ELISPOT IFN-γ assay. On the set-up: species or system mouse. Particulars: subcutaneous immunization twice, 2 nmol SIINFEKL equivalents per mouse with IFA. An excerpt: in vivo CTL response by ELISPOT IFN-γ assay. C57BL/6 mice were immunized subcutaneously with each immunogen (2 nmol […] equivalents per mouse) together with incomplete Freunds Adjuvants (IFA; Sigma, USA) at their left flanks. The immunization was repeated at their right flanks 1 week later. At 10 days after the second immunization, mice were sacrificed, and the spleens were harvested. The spleens of the sacrificed mice were teased into single-cell suspensions and filtered through nylon mesh […]. Red blood cells were lysed by Ammonium-Chloride-Potassium (ACK) lysing buffer. The washed and resuspended single cells were counted using Contess™ Automated Cell Counter (Invitrogen, USA). Splenocytes (8×10^6/mL) were incubated in RPMI-1640 medium supplemented with 10% heat inactivated fetal calf serum, 2 mM glutamine, 100 units/mL penicillin and 100 μg/mL streptomycin (Invitrogen, USA), in a 14 mL polypropylene tissue culture tube for 48 hours, with or without […] peptide (SEQ ID NO: 22) (2.5 μg/mL). The cells were then washed and recounted. 2×10^5 live cells in 100 μL medium were then loaded into wells of 96-well Filtration plates (Millipore, USA) coated with […] of capture anti-mouse IFN-γ mAb (Clone: R4-6A2, Biolegend, USA). Triplicates were set up for each condition. Cells were discarded after 24 hours of culture and the wells were incubated with […] of detectionbiotinylated, anti-mouse IFN-γ mAb overnight (Clone: XMG1.2-Biotin, Biolegend, USA). After the unbound antibodies were washed away from the wells, the bound antibodies were detected using horseradish peroxidase (HRP Avidin, Biolegend, USA) together with 3-amino-9-ethyl-carbazole (AEC) substrate (Sigma, USA). The membranes on the bottom of the wells were peeled off, and color spots on the membrane were scanned. The spots were automatically counted using ImageJ software.
Animal immunization. C57BL/6 mice were immunized by the subcutaneous injection of 2 nmol iTEP NP vaccines and incomplete Freunds Adjuvants (IFA; Sigma, USA) at their left flanks. Immunization was repeated at their right flanks after 1 week. On day 10 after the second immunization, mice were sacrificed, and the spleens were harvested.

Another data set concerns regular 4T1-luc cells. In words: Cytotoxicity, regular 4T1-luc cells. In kind it is cell-based, murine. As to conditions: Mus musculus; regular 4T1-luc cells, 72 hours; read-out: IC50. The method, then: Cytotoxicity studies. The cytotoxicity was measured as previously described (Zhao, et al; Mol. Pharm, 2014; 11(8):2703-12). The incubation time was 72 hours. 4T1-lu mammosphere cells were generated as the previously described (Zhao, et al; Mol. Pharm, 2014; 11(8):2703-12).

Data set [2] is described as follows: Thermally-induced reversible phase transition (turbidity OD350 vs temperature). Type of data set: physicochemical. An excerpt:
Characterization of thermally-induced, reversible, inverse phase transition of iTEPs and the iTEPB-iTEPA-pOVA fusion. The phase transitions of iTEP or iTEP fusions were characterized by turbidity changes of sample solutions as a function of temperature. Specifically, the optical density at 350 nm (OD350) of a sample solution was monitored using an UV-visible spectrophotometer equipped with a multi-cell thermoelectric temperature controller (Cary 300, Varian Instruments, Walnut Creek, CA) while the solution was heated from 20° C. to 80° C. and then cooled to 20° C. at a rate of 1° C./min. The maximum first derivative of the turbidity curve of a sample was identified. The transition temperature (Tt) of the sample is the temperature that corresponds to the maximum derivative.

Data set [3] concerns C57BL/6 mice. In words: Humoral immunogenicity: IgG titers by ELISA in sera of immunized mice. As to conditions: mouse, in vivo. On the procedure:
Immunization of iTEPs and collection of immune sera. C57BL/6 mice were immunized twice at their right hocks with iTEPs at a dose of 100 μg/mouse. […] At 1 week after the second immunization, 100 μL blood was collected from each immunized mouse. The blood samples were allowed to sit for 30 minutes to one hour at room temperature to clot. Sera were collected from the blood samples after the samples were spun for 10 min at 14,000 rpm at 4° C. The sera were kept at −80° C. before an analysis of the titers of iTEP-specific IgG.
Determination of IgG titers by ELISA. […] Plates were read at OD 450 nm (minus 570 nm for wavelength correction).
The end point titer of a serum IgG was defined as the reciprocal of the higher serum dilution which OD value from the ELISA assay is higher than a statistically valid cutoff. The titer results were expressed as IgG titers (Log 10) for each sample. […] The value of the cutoff was calculated using the following equation:^(31) Cutoff=X+SD t√{square root over (1+(1/n))} where X is the mean absorbance readings of independent PBS control sera, SD is the standard deviation of the readings, n is the number of independent PBS controls (mouse samples), t is the (1−α)th percentile of the one-tailed t-distribution with v=n−1 degrees of freedom.
A general note: An ELISA detects its analyte on a solid surface through an enzyme-linked reagent.

Where “and” joins values, the source holds several entries; their conditions need not be identical. Equal entries are not always repeated.

Three molecules from patent US11957762B2, “Immune tolerant and non-immune tolerant elastin-like recombinant peptides and methods of use” (University of Utah Research Foundation, priority 2015, dated 2024) can be followed below.

In the case of SIINFEKL [reference compound], in the data set with DC2.4 cells, the “presentation of SIINFEKL by DCs” value is listed as “much stronger”. For the same molecule, the “activation of B3Z cells” value in the data set on B3Z cells is “highest activity among all treatments”. Further, the “SIINFEKL-restricted activated splenocytes (INF-γ ELISPOT)” value in the data set on C57BL/6 mice [1] is 60 spots per million seeded splenocytes.

Turning to `CC(=O)O[C@H]1C(=O)[C@@]2(C)[C@H]([C@H](OC(=O)c3ccccc3)[C@]3(O)C[C@H](OC(=O)[C@H](O)[C@@H](NC(=O)c4ccccc4)c4ccccc4)C(C)=C1C3(C)C)[C@]1(OC(C)=O)CO[C@@H]1C[C@@H]2O` [PTX, paclitaxel, reference compound], in the data set on regular 4T1-luc cells, the IC50 (in general, the concentration at which inhibition is half-maximal) was found to be 6.3 nM.

B1: G(…)21GG (protein)
chain: GVPGLGAGAGVPGLGAGAGVPGLGAGAGVPGLGAGAGVPGLGAGAGVPGLGAGAGVPGLGAGAGVPGLGAGAGVPGLGAGAGVPGLGAGAGVPGLGAGAGVPGLGAGAGVPGLGAGAGVPGLGAGAGVPGLGAGAGVPGLGAGAGVPGLGAGAGVPGLGAGAGVPGLGAGAGVPGLGAGAGVPGLGAGAGVPGLGAGAGVPGLGAGAGVPGLGAGAGVPGLGAGAGVPGLGAGAGVPGLGAGAGVPGLGAGAGVPGLGAGAGVPGLGAGAGVPGLGAGAGVPGLGAGAGVPGLGAGAGVPGLGAGAGVPGLGAGAGVPGLGAGAGVPGLGAGAGVPGLGAGAGVPGLGAGAGVPGLGAGAGVPGLGAGAGVPGLGAGAGVPGLGAGAGVPGLGAGAGVPGLGAGAGVPGLGAGAGVPGLGAGAGVPGLGAGAGVPGLGAGAGVPGLGAGAGVPGLGAGAGVPGLGAGAGVPGLGAGAGVPGLGAGAGVPGLGAGAGVPGLGAGAGVPGLGAGAGVPGLGAGAGVPGLGAGAGVPGLGAGAGVPGLGAGAGVPGLGAGAGVPGLGAGAGVPGLGAGAGVPGLGAGAGVPGLGAGAGVPGLGAGAGVPGLGAGAGVPGLGAGAGVPGLGAGAGVPGLGAGAGVPGLGAGAGVPGLGAGAGVPGLGAGAGVPGLGAGAGVPGLGAGAGVPGLGAGAGVPGLGAGAGVPGLGAGAGVPGLGAGAGVPGLGAGAGVPGLGAGAGVPGLGAGAGVPGLGAGAGVPGLGAGAGVPGLGAGAGVPGLGAGAGVPGLGAGAGVPGLGAGAGVPGLGAGAGVPGLGAGAGVPGLGAGAGVPGLGAGAGVPGLGAGAGVPGLGAGAGVPGLGAGAGGG
With B1, in data set [2], the “Relative Hydrophobicity” value is reported as “High”. Moreover, the “(heating) Tt” value in data set [2] (5 μM) amounted to 50.5 °C. In data set [2] (25 μM in H2O), the “Tt (cooling)” value amounted to 34.00 ± 0.58 °C; the “Tt (heating)” value is 35.7 °C and 35.70 ± 0.58 °C. In addition, in the data set with C57BL/6 mice [3], the humoral immunogenicity result was “did not show different immunogenicity”.
